Data: patent US20170247447A1 (Hoffmann-La Roche, published 2017)
Read-outs that look alike come from different tables or passages of the source.

Assays:
human IL-1beta [1] = target: T1, human IL-1beta (human, UniProt P01584 117-269); test: cell-based or functional assay
human IL-1beta [2] = target: T1, human IL-1beta; test: cell-based or functional assay; remark: listed apart in the source
human IL-1beta [3] = target: T1, human IL-1beta; test: cell-based or functional assay; remark: listed apart in the source
human IL-1beta [4] = target: T1, human IL-1beta; test: cell-based or functional assay; remark: listed apart in the source
human IL-1beta [5] = target: T1, human IL-1beta; test: SPR (BIAcore T200), antibody captured via anti-human Fc, human IL-1beta in solution
Procedure: All experiments were performed at 25° C. using HBS-P (10 mM His, 140 mM NaCl, 0.05% Tween 20 pH 7.4) as running and dilution buffer. Anti-human Fc antibodies were immobilized on a Series S CM5 Sensor Chip (GE Healthcare) using standard amine coupling chemistry. Bispecific antibodies were captured on the surface leading to a capturing response of 100-200 RU. […] The dissociation phase was monitored for 600 sec by washing with running buffer. The surface was regenerated by injecting 3 M MgCl2 (for anti-human Fc antibody) or 10 mM Glycine pH 1.5 (for anti-mouse Fc antibody) for 60 sec at a flow rate of 5 μl/min. Bulk refractive index differences were corrected by subtracting the response obtained from a mock surface. Blank injections were subtracted (double referencing). The derived curves were fitted to a 1:1 Langmuir binding model using the BIAevaluation software.

human IL-1beta [6] = target: T1, human IL-1beta; test: cell-based or functional assay; remark: listed apart in the source
human IL-1beta [7] = target: T1, human IL-1beta; test: cell-based or functional assay; remark: listed apart in the source
human IL-1beta [8] = target: T1, human IL-1beta; test: cell-based or functional assay; remark: listed apart in the source
human IL-1beta [9] = target: T1, human IL-1beta; test: cell-based or functional assay; remark: listed apart in the source
human IL-1beta [10] = target: T1, human IL-1beta; test: SPR (BIAcore), antibody captured via anti-Fc, IL-1beta in solution
cynomolgus IL-1beta [11] = target: T2, cynomolgus IL-1beta (cynomolgus, UniProt P79182 117-268); test: as above
T2 sequence (P79182 117-268 limits assumed): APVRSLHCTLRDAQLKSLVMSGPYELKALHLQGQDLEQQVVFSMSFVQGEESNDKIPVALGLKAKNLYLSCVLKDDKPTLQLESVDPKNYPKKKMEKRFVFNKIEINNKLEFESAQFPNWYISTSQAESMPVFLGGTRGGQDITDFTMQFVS

human IL-1beta [12] = target: T1, human IL-1beta; test: SPR competition, 10 nM human IL-1beta pre-incubated with antibody, competitor immobilized human IL-1RI
Procedure: All experiments were performed at 25° C. using HBS-P (10 mM His, 140 mM NaCl, 0.05% Tween 20 pH 7.4) as running and dilution buffer. Human IL-1RI was immobilized on a Series S CM5 Sensor Chip (GE Healthcare) using standard amine coupling chemistry. […] The surface was regenerated by injecting 10 mM NaOH for 60 sec at a flow rate of 5 μl/min. Bulk refractive index differences were corrected by subtracting the response obtained from a mock surface.

human IL-1beta [13] = target: T1, human IL-1beta; test: immunoprecipitation radioimmunoassay with 125I-IL-1beta
Procedure: Determination of antibody affinity—Monoclonal antibody affinity was determined from data obtained using an immunoprecipitation radioimmunoassay. Briefly, 5000 cpm/tube of ¹²⁵IIL-1beta was incubated with dilutions of purified monoclonal antibody in 0.3 ml of 1% non-fat dry milk/0.5% Thimerosal/PBS overnight at 4° C. Antigen-antibody complexes were precipitated by the addition of 100 μL/tube each of 10% normal mouse serum/PBS and 4 mg/ml goat anti mouse IgG sera in PBS. After 4 hours at 4° C., the 1/ml tube of ice-cold 2% polyethylene glycol-6000 was added and the tubes centrifuged at 3000*g for 20 min. at 4° C. The supernatants were aspirated and the pellets counted in a gamma counter.
Affinity constants were calculated using data obtained from an immunoprecipitation radioimmunoassay (RIA) of ¹²⁵IIL-1beta binding of different antibody concentrations as described above.

human IL-1beta [14] = target: T1, human IL-1beta; test: SPR (BIAcore), antibody captured via anti-Fc, IL-1beta in solution; remark: listed apart in the source
Procedure: (§1) All experiments were performed at 25° C. using HBS-P (10 mM His, 140 mM NaCl, 0.05% Tween 20 pH 7.4) as running and dilution buffer. Anti-human or anti-mouse Fc antibodies were immobilized on a Series S CMS Sensor Chip (GE Healthcare) using standard amine coupling chemistry. […] The dissociation phase was monitored for 600 sec by washing with running buffer. […] The surface was regenerated by injecting 3 M MgCl2 (for anti-human Fc antibody) or 10 mM Glycine pH 1.5 (for anti-mouse Fc antibody) for 60 sec at a flow rate of 5 μl/min. Bulk refractive index differences were corrected by subtracting the response obtained from a mock surface. Blank injections were subtracted (double referencing). The derived curves were fitted to a 1:1 Langmuir binding model using the BIAevaluation software.

cynomolgus IL-1beta [15] = target: T2, cynomolgus IL-1beta; test: as above; remark: listed apart in the source
Procedure: as §1

Row | EC50, reduction of IL-6 expression, A549 cells (human IL-1beta [1]) | EC50, reduction of IL-6 expression, A549 cells (human IL-1beta [2]) | IC50, inhibition of ICAM-1 expression, A549 cells (human IL-1beta [3]) | IC50, inhibition of ICAM-1 expression, HUVEC cells (human IL-1beta [4]) | t½ (human IL-1beta [5]) | Binder | other results
1 | 0.0864 µg/mL | 0.12 nM | 0.31 nM | 9.02 nM | – | Canakinumab (antibody, V domains shown) VH: QVQLVESGGGVVQPGRSLRLSCAASGFTFSVYGMNWVRQAPGKGLEWVAIIWYDGDNQYYADSVKGRFTISRDNSKNTLYLQMNGLRAEDTAVYYCARDLRTGPFDYWGQGTLVTVSS VL: EIVLTQSPDFQSVTPKEKVTITCRASQSIGSSLHWYQQKPDQSPKLLIKYASQSFSGVPSRFSGSGSGTDFTLTINSLEAEDAAAYYCHQSSSLPFTFGPGTKVDIKR | –
2 | – | 0.11 nM | 0.23 nM | 0.3 nM | 101 s | huH34-2 (antibody, V domains shown, Humanized, captured by anti-human Fc in SPR; also called huH34-2 bivalent) VH: QVQLVQSGAEVKKPGASVKVSCKASGYTFTGYYMHWVRQAPGQGLEWIGYISSYNAFTTYNQKFRGRATFTVDTSISTAYMELSRLRSDDTAVYYCVRSDYYGTSLYWGQGTLVTVSS VL: EIVLTQSPATLSLSPGERATLSCRASSSVSYMHWSQQKPGQAPRLLIYSTSNLASGIPARFSGSGSGTDFTLTISSLEPEDFAVYYCHQWSNYYTFGQGTKLEIK | –
3 | 0.017 µg/mL | – | – | – | 38 s | antibody 0031 (bispecific anti-ANG2/IL-1beta CrossMab antibody) (bispecific antibody, V domains shown, also called anti-IL-1beta/ANG2 antibody) VH 1: QVQLVQSGAEVKKPGASVKVSCKASGYTFTGYYMHWVRQAPGQGLEWIGYISSYNAFTTYNQKFRGRATFTVDTSISTAYMELSRLRSDDTAVYYCVRSDYYGTSLYWGQGTLVTVSS VL 1: EIVLTQSPATLSLSPGERATLSCRASSSVSYMHWSQQKPGQAPRLLIYSTSNLASGIPARFSGSGSGTDFTLTISSLEPEDFAVYYCHQWSNYYTFGQGTKLEIK VH 2: not shown VL 2: SYVLTQPPSVSVAPGQTARITCGGNNIGSKSVHWYQQKPGQAPVLVVYDTSDRPSGIPERFSGSNSGNTATLTISRVEAGDEADYYCQVWDSSSDHWVFGGGTKLTVLSS | IC50, inhibition of ICAM-1 expression, A549 cells (human IL-1beta [6]): 0.104 µg/mL
4 | 0.0387 µg/mL | – | – | – | 38 s | antibody 0032 (bispecific anti-VEGF/IL-1beta CrossMab antibody) (bispecific antibody, V domains shown, also called anti-IL-1beta/VEGF antibody) VH 1: EVQLVESGGGLVQPGGSLRLSCAASGYDFTHYGMNWVRQAPGKGLEWVGWINTYTGEPTYAADFKRRFTFSLDTSKSTAYLQMNSLRAEDTAVYYCAKYPYYYGTSHWYFDVWGQGTLVTVSS VL 1: DIQLTQSPSSLSASVGDRVTITCSASQDISNYLNWYQQKPGKAPKVLIYFTSSLHSGVPSRFSGSGSGTDFTLTISSLQPEDFATYYCQQYSTVPWTFGQGTKVEIK VH 2: QVQLVQSGAEVKKPGASVKVSCKASGYTFTGYYMHWVRQAPGQGLEWIGYISSYNAFTTYNQKFRGRATFTVDTSISTAYMELSRLRSDDTAVYYCVRSDYYGTSLYWGQGTLVTVSS VL 2: EIVLTQSPATLSLSPGERATLSCRASSSVSYMHWSQQKPGQAPRLLIYSTSNLASGIPARFSGSGSGTDFTLTISSLEPEDFAVYYCHQWSNYYTFGQGTKLEIK | –
5 | – | 1.09 nM | 2.23 nM | – | – | huH34-3 (antibody, V domains shown) VH: QVQLVQSGAEVKKPGASVKVSCKASGYTFTGYYMHWVRQAPGQGLEWIGYISSYSAFTTYNQKFRGRATFTVDTSISTAYMELSRLRSDDTAVYYCVRSDYYGTSLYWGQGTLVTVSS VL: EIVLTQSPATLSLSPGERATLSCRASSSVSYMHWSQQKPGQAPRLLIYSTSNLASGIPARFSGSGSGTDFTLTISSLEPEDFAVYYCHQWSNYYTFGQGTKLEIK | –
6 | – | 5.52 nM | > 7 nM | – | – | huH34-1 (antibody, V domains shown) VH: QVQLVQSGAEVKKPGASVKVSCKASGYTFTGYYMHWVRQAPGQGLEWMGYISSYSGFTTYAQKFQGRVTMTRDTSISTAYMELSRLRSDDTAVYYCARSDYYGTSLYWGQGTLVTVSS VL: EIVLTQSPATLSLSPGERATLSCRASSSVSYMHWSQQKPGQAPRLLIYSTSNLASGIPARFSGSGSGTDFTLTISSLEPEDFAVYYCHQWSNYYTFGQGTKLEIK | –
7 | – | – | – | – | – | mumAb (novel murine anti-human IL-1beta antibody) (antibody, V domains shown) VH: EVQLQQSGPELEKPGASVKISCKASGYSFTDYNMNWVRQSNGKSLEWIGNIDPYYGGTTYNQKFKDKATLTVDKSSSTAYMQLKSLTSEDSAVYYCAREGSPTRYYVMDYWGQGTSVTVSS VL: DIQMTQSPASLSASVGETVTITCRASENIYSNLAWYQQKQGKSPQLLVYAATNLADGVPSRFSGSGSGTQFSLKINSLQPEDFGSYYCHHFYNTPWTFGGGTKLEIK | IC50, inhibition of ICAM-1 expression, A549 cells (human IL-1beta [7]): 0.7 nM; IC50, inhibition of ICAM-1 expression, HUVEC cells (human IL-1beta [8]): 16.5 nM; EC50, reduction of IL-6 expression, A549 cells (human IL-1beta [9]): 1.09 nM
8 | – | – | 0.18 nM | 0.24 nM | – | murine anti-IL-1beta antibody ILB1-H34 (antibody, mouse IgG1, V domains shown, also called HLB1-H34) VH: EVQLQQSGPELVKTGASVKISCKASGYSFTGYYMHWVKQSHGKSLEWIGYISCYNAFTTYNQRFRGKATFTVDTSSSTAYMQFNSLTSEDSAVYYCVRSDYYGTSLYWGQGTTLTVSS VL: QIVLTQSPAIMSASLGEEITLTCSASSSVSYMHWSQQKSGSSPKLLIYSTSNLASGVPSRFSGSGSGTFYSLTISSVEAEDAADYYCHQWSNYYTFGGGTKLEIK | Kd (human IL-1beta [10]): 0.07 nM; koff (human IL-1beta [10]): 0.000127 s⁻¹; kon (human IL-1beta [10]): 1.85e+06 M⁻¹ s⁻¹; Kd (cynomolgus IL-1beta [11]): 0.05 nM; koff (cynomolgus IL-1beta [11]): 9.8e-05 s⁻¹; kon (cynomolgus IL-1beta [11]): 1.99e+06 M⁻¹ s⁻¹; IC50 (human IL-1beta [12]): 3.5 nM; Ka (human IL-1beta [13]): 6.4e+10 M⁻¹; Kd (human IL-1beta [14]): 0.07 nM; koff (human IL-1beta [14]): 0.000127 s⁻¹; kon (human IL-1beta [14]): 1.85e+06 M⁻¹ s⁻¹; Kd (cynomolgus IL-1beta [15]): 0.05 nM; koff (cynomolgus IL-1beta [15]): 9.8e-05 s⁻¹; kon (cynomolgus IL-1beta [15]): 1.99e+06 M⁻¹ s⁻¹
